A short description of this series: Thermal shift stability assay (TSSA), aggregation temperature. It is filed as physicochemical. Details: unit not given here. Conditions: for Tagg run1 / Tagg run2 / Tagg run3: mAb2 VH/Vk, human IgG1 Fc mutation formats, temperature of aggregation; for Tagg Mean: mean of run1-run3. The procedure:
The resulting antibodies were tested for stability in the following reference formulation at a concentration of approximatively 7 mg/mL: pH 6.0; histidine buffer (10 mM); sucrose (200 mM); NaCl (50 mM); Polysorbate 80 (PS80) (0.2 g/L). […] So for this study the concentration is set at 0.2 g/L. The stability of the formulations was monitored in two storage conditions (at +5° C.±3° C. and at +40±3° C. For each study, 3 times point were performed: TO, T15D (15 days) and T1M (1 month). A freeze thaw (F/T) and a thermal shift stability assay (TSSA) were conducted for the format comparison. To perform F/T cycles, the samples were frozen at least 2 hours at −20° C. and thawed at least 1 hour at room temperature, the F/T cycle is repeated three times and samples are tested 24 h after the last Freeze/Thaw cycle. At each time point, the following tests were performed: • Particulate Matter (MFI) • Visual Inspection (Appearance) • Impurities (SE-HPLC) • Turbidity (400 nm) • Protein Concentration (280 nm) (performed with Nanodrop, Thermo Fisher Scientific Inc.)
These aromatic residues confer a relatively high predicted hydrophobicity to the antibody. However, the aromatic residues in these antibodies are believed to be important for antibody function and can probably not be replaced by a non-aromatic residue without a reduction or loss of activity. […] Aggregation temperature is correlated with the intrinsic stability. The higher the TAgg, the higher the stability of the protein. […] The stability of each of the Fc domain of human IgG1 isotype comprises an amino acid substitution at Kabat residue(s) 234, 235, 237, 330 and/or 331 (L234A/L235E/P331S substitutions, L234F/L235E/P331S substitutions, L234A/L235E/G237A/P331S substitutions, and L234A/L235E/G237A/A330S/P331S substitutions) improved the antibody, as shown in the table below. Such mutations can therefore enhance the pharmacological properties and/or activity of the antibody.

B1: L234F/L235E/P331S: mAb2 variable regions as human IgG1 with L234F/L235E/P331S; heavy chain SEQ ID NO: 26, light chain SEQ ID NO: 9 (antibody)
heavy: QVQLVQSGSELKKPGASVKVSCKASGYTFTHYGMNWVRQAPGQGLKWMGWINTYTGEPTYADDFKGRFVFSLDTSVSTAYLQISSLKAEDTAVYYCARRRYEGNYVFYYFDYWGQGTTVTVSSASTKGPSVFPLAPSSKSTSGGTAALGCLVKDYFPEPVTVSWNSGALTSGVHTFPAVLQSSGLYSLSSVVTVPSSSLGTQTYICNVNHKPSNTKVDKRVEPKSCDKTHTCPPCPAPEFEGGPSVFLFPPKPKDTLMISRTPEVTCVVVDVSHEDPEVKFNWYVDGVEVHNAKTKPREEQYNSTYRVVSVLTVLHQDWLNGKEYKCKVSNKALPASIEKTISKAKGQPREPQVYTLPPSREEMTKNQVSLTCLVKGFYPSDIAVEWESNGQPENNYKTTPPVLDSDGSFFLYSKLTVDKSRWQQGNVFSCSVMHEALHNHYTQKSLSLSPGK
VL: DIQMTQSPSSLSASVGDRVTITCRASENIYSYFSWYQQKPGKAPKLLIYTAKTLAEGVPSRFSGSGSGTDFTLTISSLQPEDFATYYCQHHYVTPYTFGGGTKVEIK
modifications: Chimeric
In the case of B1, the “Tagg run1” value is recorded as 67.65, the “Tagg run2” value worked out at 67.87, the “Tagg run3” value is given as 68.34 and the “Tagg Mean” value is recorded as 68.0.

B2: L234A/L235E/P331S: mAb2 variable regions as human IgG1 with L234A/L235E/P331S; heavy chain SEQ ID NO: 27, light chain SEQ ID NO: 9 (antibody)
heavy: QVQLVQSGSELKKPGASVKVSCKASGYTFTHYGMNWVRQAPGQGLKWMGWINTYTGEPTYADDFKGRFVFSLDTSVSTAYLQISSLKAEDTAVYYCARRRYEGNYVFYYFDYWGQGTTVTVSSASTKGPSVFPLAPSSKSTSGGTAALGCLVKDYFPEPVTVSWNSGALTSGVHTFPAVLQSSGLYSLSSVVTVPSSSLGTQTYICNVNHKPSNTKVDKRVEPKSCDKTHTCPPCPAPEAEGGPSVFLFPPKPKDTLMISRTPEVTCVVVDVSHEDPEVKFNWYVDGVEVHNAKTKPREEQYNSTYRVVSVLTVLHQDWLNGKEYKCKVSNKALPASIEKTISKAKGQPREPQVYTLPPSREEMTKNQVSLTCLVKGFYPSDIAVEWESNGQPENNYKTTPPVLDSDGSFFLYSKLTVDKSRWQQGNVFSCSVMHEALHNHYTQKSLSLSPGK
VL: DIQMTQSPSSLSASVGDRVTITCRASENIYSYFSWYQQKPGKAPKLLIYTAKTLAEGVPSRFSGSGSGTDFTLTISSLQPEDFATYYCQHHYVTPYTFGGGTKVEIK
modifications: Chimeric
On to B2, for which the “Tagg run1” value worked out at 66.50, the “Tagg run2” value was 66.91, the “Tagg run3” value is given as 67.77 and the “Tagg Mean” value came to 67.1.

B3: L234A/L235E/G237A/P331S: mAb2 variable regions as human IgG1 with L234A/L235E/G237A/P331S; heavy chain SEQ ID NO: 29, light chain SEQ ID NO: 9 (antibody)
heavy: QVQLVQSGSELKKPGASVKVSCKASGYTFTHYGMNWVRQAPGQGLKWMGWINTYTGEPTYADDFKGRFVFSLDTSVSTAYLQISSLKAEDTAVYYCARRRYEGNYVFYYFDYWGQGTTVTVSSASTKGPSVFPLAPSSKSTSGGTAALGCLVKDYFPEPVTVSWNSGALTSGVHTFPAVLQSSGLYSLSSVVTVPSSSLGTQTYICNVNHKPSNTKVDKRVEPKSCDKTHTCPPCPAPEAEGAPSVFLFPPKPKDTLMISRTPEVTCVVVDVSHEDPEVKFNWYVDGVEVHNAKTKPREEQYNSTYRVVSVLTVLHQDWLNGKEYKCKVSNKALPASIEKTISKAKGQPREPQVYTLPPSREEMTKNQVSLTCLVKGFYPSDIAVEWESNGQPENNYKTTPPVLDSDGSFFLYSKLTVDKSRWQQGNVFSCSVMHEALHNHYTQKSLSLSPGK
VL: DIQMTQSPSSLSASVGDRVTITCRASENIYSYFSWYQQKPGKAPKLLIYTAKTLAEGVPSRFSGSGSGTDFTLTISSLQPEDFATYYCQHHYVTPYTFGGGTKVEIK
modifications: Chimeric
With B3, the “Tagg run1” value worked out at 66.08, the “Tagg run2” value came out at 66.55, the “Tagg run3” value worked out at 66.29 and the “Tagg Mean” value came out at 66.3.

B4: L234A/L235E/G237A/A330S/P331S: mAb2 variable regions as human IgG1 with L234A/L235E/G237A/A330S/P331S; heavy chain SEQ ID NO: 28, light chain SEQ ID NO: 9 (antibody)
heavy: QVQLVQSGSELKKPGASVKVSCKASGYTFTHYGMNWVRQAPGQGLKWMGWINTYTGEPTYADDFKGRFVFSLDTSVSTAYLQISSLKAEDTAVYYCARRRYEGNYVFYYFDYWGQGTTVTVSSASTKGPSVFPLAPSSKSTSGGTAALGCLVKDYFPEPVTVSWNSGALTSGVHTFPAVLQSSGLYSLSSVVTVPSSSLGTQTYICNVNHKPSNTKVDKRVEPKSCDKTHTCPPCPAPEAEGAPSVFLFPPKPKDTLMISRTPEVTCVVVDVSHEDPEVKFNWYVDGVEVHNAKTKPREEQYNSTYRVVSVLTVLHQDWLNGKEYKCKVSNKALPSSIEKTISKAKGQPREPQVYTLPPSREEMTKNQVSLTCLVKGFYPSDIAVEWESNGQPENNYKTTPPVLDSDGSFFLYSKLTVDKSRWQQGNVFSCSVMHEALHNHYTQKSLSLSPGK
VL: DIQMTQSPSSLSASVGDRVTITCRASENIYSYFSWYQQKPGKAPKLLIYTAKTLAEGVPSRFSGSGSGTDFTLTISSLQPEDFATYYCQHHYVTPYTFGGGTKVEIK
modifications: Chimeric
For the molecule B4, the “Tagg run1” value is given as 66.35, the “Tagg run2” value is 67.58, the “Tagg run3” value is 67.07 and the “Tagg Mean” value is listed as 67.0.

For the origin of these results see patent US20190071514A1, “ANTI-CD39 ANTIBODIES” (INNATE PHARMA, priority 2016, published 2019).
